Laboratory results reported in PMC10449631 (Nature Chemical Biology, 2023).
Values joined by “and” are separate entries in the source; they are usually repeats but may differ in a detail not shown here. Equal values may be shown once. Positions of bridges follow the written chain, without caps; N, C: chain ends. Residues, ends and D or L forms follow the SMILES beside them. No end group written: not given here.

Key:
PaAP [1] = tested on: PaAP; set-up: method as in PMID 30894675; conditions: impacted the activity of PaAP in vivo; cited from earlier work
PaAP_T [2] = molecular target: T1, PaAP_T (Pseudomonas aeruginosa, UniProt Q02PA2); test: Enzymatic assay with amino acid-pNA substrates (kcat, KM); format: biochemical; conditions: amino acid–pNA substrate
T1 construct: PaAP (WT, residues 27–536); His6 (TEV cleavable) (N, cleaved yes); made in house; host or cells: E. coli SHuffle T7
Procedure: (§1) Aminopeptidase activity was determined spectrophotometrically primarily using amino Leu-pNA. Other commercially available pNA substrates (isoleucine, methionine, alanine, valine, proline, arginine, lysine and phenylalanine) were also assayed. Leu-pNA was incubated with enzyme (100 nM) in assay buffer (50 mM Tris, pH 8.5, 200 mM NaCl) at 25 °C. A pNA release caused an absorbance increase at 405 nm, monitored using a BMG Labtech plate reader. […] Data were plotted in GraphPad Prism (version 9) and the Michalis Menten equation was used for fitting.

in vitro = in vitro ADME, Pseudomonas aeruginosa; conditions: cells or culture medium; after 48 h growth; read-out: peptide remaining in solution
Procedure: Supplementary Figure 19. Stability of cyclic-ERWGHDFIK
The stability of cyclic-ERWGHDFIK was tested by incubating in LB media +/- inoculation with PA14 Pseudomonas aeruginosa. Samples were taken at set timepoints over a 48 hour time period, quenched and analysed by LC-MS. % of cyclic-ERWGHDFIK remaining was calculated by comparing integrated peak areas to the 0 time point. n=1 […]
(1 picture or pasted object on this page, not shown here)

[3] = molecular target: T2, PaAP_T (P. aeruginosa aminopeptidase, C-terminal truncated) (Pseudomonas aeruginosa, UniProt Q02PA2); test: Inhibition of PaAP_T in the Leu-pNA aminopeptidase assay (KI, IC50); format: biochemical
T2 construct: PaAP (WT, residues 27–536); His6 (TEV cleavable) (N, cleaved yes); made in house; host or cells: E. coli SHuffle T7
Procedure: as §1
(§2) Inhibition assays were carried out with the following peptides: linear-ERWGHDFIK (PaAP C-terminal residues), cyclic-ERWGHDFIK, N-acetylated and C-amidated ERWGHDFIK. IC50 values were determined by varying peptide concentration at a fixed substrate concentration (fixed at KM, (S) = 2 mM, PaAP concentration was 100 nM). […] KI values were determined by fitting the data to equation (1) (Morrison’s equation):1 v=1−Et+I+KI−Et+I+KI^2−4EtIKI/2Et where v is the velocity, Et is the total enzyme concentration, I is the concentration of inhibitor and KI is the equilibrium dissociation constant for the inhibitor. IC50 values increased when measured at increasing S, consistent with competitive inhibition.

PaAP [4] = test: PaAP in reaction buffer (50 mM Tris, pH 8.5, 100 mM NaCl); conditions: P. aeruginosa, room temperature, up to overnight
[5] = molecular target: T3, PaAP_T (P. aeruginosa aminopeptidase, C-terminal truncated) (Pseudomonas aeruginosa, UniProt Q02PA2); test: Inhibition of PaAP_T in the Leu-pNA aminopeptidase assay (KI, IC50); format: biochemical; conditions: for IC50 plot data (PaAP_T activity at given peptide concentration): (S) = 2 mM, PaAP 100 nM, listed as ERWGHDFIK-NH3
T3 construct: PaAP (WT, residues 27–536); His6 (TEV cleavable) (N, cleaved yes); made in house; host or cells: E. coli SHuffle T7
T3 sequence (Q02PA2 whole entry, looked up): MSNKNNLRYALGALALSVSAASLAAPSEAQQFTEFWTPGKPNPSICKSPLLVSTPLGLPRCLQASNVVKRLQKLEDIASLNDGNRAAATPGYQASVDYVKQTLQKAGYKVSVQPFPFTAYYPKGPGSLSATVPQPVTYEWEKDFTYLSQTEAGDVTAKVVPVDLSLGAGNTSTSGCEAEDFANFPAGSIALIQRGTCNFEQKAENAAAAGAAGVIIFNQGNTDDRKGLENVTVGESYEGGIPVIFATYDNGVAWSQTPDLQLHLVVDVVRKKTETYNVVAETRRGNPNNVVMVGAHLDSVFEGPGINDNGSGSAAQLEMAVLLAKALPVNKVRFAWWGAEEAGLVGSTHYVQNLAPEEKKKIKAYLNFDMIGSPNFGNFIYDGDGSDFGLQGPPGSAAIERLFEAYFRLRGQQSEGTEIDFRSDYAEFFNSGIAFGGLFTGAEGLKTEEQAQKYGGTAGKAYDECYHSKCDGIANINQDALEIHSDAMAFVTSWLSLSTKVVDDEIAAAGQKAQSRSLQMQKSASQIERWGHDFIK
Procedure: as §1, §2

PaAP [6] = molecular target: T4, PaAP (Pseudomonas aeruginosa, UniProt Q02PA2, A513L/Q514V/S515P); test: Peptide digestion assay (overnight and time course, LC-MS/MALDI); format: biochemical; conditions: for P0 (parent peptide, LC–MS signal): 500 μM peptide, 1 μM PaAP_T, listed as ERWGHDFIK-NH3
T4 construct: PaAP (WT, residues 27–536); His6 (TEV cleavable) (N, cleaved yes); made in house; host or cells: E. coli SHuffle T7
Procedure: A variety of peptides of varying lengths and compositions were incubated with PaAP at room temperature. Assays were performed by incubating (overnight at room temperature) 500 μM of substrate (peptides) with 1 μM enzyme (PaAP) in reaction buffer (50 mM Tris, pH 8.5, 100 mM NaCl). The reactions were quenched by heating to 100 °C for 10 min followed by centrifugation at 17,000g in a benchtop centrifuge to remove precipitate. Supernatant was collected and samples were analyzed by LC–MS. Initial trial assays were carried out in the presence and absence (control) of enzyme to determine if the substrate was degraded (single or triplicate experiments). Time-course assays were performed on selected peptide substrates in triplicate. A 300 μl reaction (including 500 μM of substrate) was initiated by the addition of 1 μM enzyme. The reaction was incubated at room temperature. The reaction was quenched at set timepoints by the removal of 30 μl aliquots, which were immediately heated to 100 °C for 10 min. The samples were analyzed by LC–MS using a Xevo Q-ToF (Waters) as described below, searching for masses of all peptide breakdown products.
Peptide degradation time courses were fitted to exponential equations as follows:
P0 peptide consumption was fitted to a single exponential equation (equation (2)) with the format2 yt=y0−Plateaue^−kt+Plateau
Time courses for the formation and decay of peptide intermediates were fitted to double exponential equations (equation (3)) and single exponential equations, followed by a linear phase (4)3 yt=y0−Plateau1e^−k1t+y0−Plateau2e^−k2t+Plateau 4 yt=y0−Plateaue^−kt+vt+Plateau where y(t) is the product formed at time t, y0 − Plateau is the amplitude of the exponential phase, k is the observed rate constant for the exponential phase, y0 is the value of y at time 0, Plateau is the value of y after exponential phase, C is the offset and v is the slope of the linear phase.
Peptide samples incubated in the presence and absence of PaAP were initially analyzed by MALDI. The peptide sample (0.5 µl at 10 µM) was spotted along with matrix (0.5 µl 10 mg ml^−1 α-cyano-4-hydroxycinnamic acid in ACN/0.1% TFA (50/50, vol/vol)) on a stainless steel MALDI plate and left to dry. The sample plate was loaded into a Sciex 4800 MALDI mass spectrometer. The laser voltage was adjusted to give a good signal to noise strength, and 50 shots were acquired in a random pattern across the spot and spectra combined. The spectra were externally calibrated with Sciex Pepcal mix (range: 500–4,000 m/z).

PaAP_T [7] = test: PaAP_T in reaction buffer (50 mM Tris, pH 8.5, 100 mM NaCl), time course; conditions: P. aeruginosa, room temperature, up to 1220 minutes
PaAP_T [8] = test: reaction buffer (50 mM Tris, pH 8.5, 100 mM NaCl), time-course assay; conditions: Pseudomonas aeruginosa (recombinant enzyme), room temperature, up to 1220 min

T4 sequence (Q02PA2 37-516 A513L/Q514V/S515P): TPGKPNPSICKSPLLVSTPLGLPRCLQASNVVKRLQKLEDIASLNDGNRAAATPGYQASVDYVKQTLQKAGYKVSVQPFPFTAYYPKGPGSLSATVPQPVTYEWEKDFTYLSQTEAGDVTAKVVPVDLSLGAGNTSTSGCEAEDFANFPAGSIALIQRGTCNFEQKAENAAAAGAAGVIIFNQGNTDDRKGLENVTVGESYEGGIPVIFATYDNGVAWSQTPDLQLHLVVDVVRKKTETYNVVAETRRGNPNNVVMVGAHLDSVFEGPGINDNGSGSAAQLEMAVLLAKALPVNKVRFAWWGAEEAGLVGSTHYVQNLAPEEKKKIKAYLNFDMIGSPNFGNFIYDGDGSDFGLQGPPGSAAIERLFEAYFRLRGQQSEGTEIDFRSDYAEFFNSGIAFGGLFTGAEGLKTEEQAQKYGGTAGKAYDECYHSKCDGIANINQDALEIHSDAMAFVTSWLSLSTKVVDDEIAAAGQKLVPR

In the case of `O=C(O)CCNC(=O)c1ccc(/N=N/c2ccc(O)c(C(=O)O)c2)cc1` [Balsalazide], the “effect on biofilm” value (PaAP [1]) is listed as “anti-biofilm phenotype”.

`CC(C)C[C@H](N)C(=O)Nc1ccc([N+](=O)[O-])cc1` [Leu-pNA] gave a kcat (PaAP_T [2]) of 11.5 s⁻¹.

`NCCCC[C@H](N)C(=O)Nc1ccc([N+](=O)[O-])cc1` [Lys-pNA] showed a kcat (PaAP_T [2]) of 4.13 s⁻¹.

Work on `CC(C)[C@H](N)C(=O)Nc1ccc([N+](=O)[O-])cc1` [Val-pNA] yielded a kcat (PaAP_T [2]) of 0.115 s⁻¹.

In the case of `CC[C@H](C)[C@@H]1NC(=O)[C@H](Cc2ccccc2)NC(=O)[C@H](CC(=O)O)NC(=O)[C@H](Cc2c[nH]cn2)NC(=O)CNC(=O)[C@H](Cc2c[nH]c3ccccc23)NC(=O)[C@H](CCCNC(=N)N)NC(=O)[C@@H](N)CCC(=O)NCCCC[C@@H](C(=O)O)NC1=O` [cyclic-ERWGHDFIK] (H-ERWGHDFIK-OH; lactam 1-9), the remaining at 48 h (in vitro) is reported as > 60% and the Ki [3] is reported as 22.8 nM.

With Ac-ERWGHDFIK the not cleaved (PaAP [4]) was “not a substrate”.

For “ERWGHDFIK-NH2: ERWGHDFIK peptide harboring a C-terminal amide”, the “IC50 relative to unmodified linear ERWGHDFIK” value ([5]; Leu-pNA assay) was “increased IC50 value”, the “inhibition of PaAP_T” value ([5]; Leu-pNA assay) was “very poor inhibitors” and the “IC50 plot data (PaAP_T activity at given peptide concentration)” value (shortened to “IC50 plot data”) ([5]; log(I) 0) was 100.509 and 101.823 and 100.804. The “IC50 plot data” value ([5]; log(I) 0.39794) was 100.885 and 102.922 and 101.877, the “IC50 plot data” value ([5]; log(I) 0.69897) was 100.054 and 101.233 and 108.07 and the “IC50 plot data” value ([5]; log(I) 1) was 99.2493 and 105.174 and 106.059. The “IC50 plot data” value ([5]; log(I) 1.39794) was 96.4075 and 101.34 and 94.2091, the “IC50 plot data” value ([5]; log(I) 1.69897) was 90.5898 and 93.2172 and 95.2547 and the “IC50 plot data” value ([5]; log(I) 2) was 71.9303 and 76.8365 and 72.5737. For the same compound, the “IC50 plot data” value ([5]; log(I) 2.39794) was 36.7024 and 39.9464 and 37.7748, the “IC50 plot data” value ([5]; log(I) -0.30103) was 101.126 and 105.737 and 97.1046 and the “IC50 plot data” value ([5]; log(I) -0.60206) was 99.866 and 101.85 and 100.456. The “IC50 plot data” value ([5]; log(I) -1) was 101.475 and 103.619 and 100.617, the “IC50 plot data” value ([5]; log(I) -1.30103) was 101.126 and 99.5174 and 100.483 and the “substrate of / degraded by PaAP (words)” value (PaAP [6]; incubated with PaAP overnight, LC–MS or MALDI, listed as ERWEGHDFIK-NH3) was “good substrate”. The “P0 (parent peptide, LC–MS signal)” value (PaAP [6]; time 0 minutes) was 747781 and 703178 and 683749, the “P0 (parent peptide, LC–MS signal)” value (PaAP [6]; time 5 minutes) was 717720 and 659374 and 657747 and the “P0 (parent peptide, LC–MS signal)” value (PaAP [6]; time 10 minutes) was 666366 and 611681 and 573626. The “P0 (parent peptide, LC–MS signal)” value (PaAP [6]; time 30 minutes) was 456167 and 415831 and 416655, the “P0 (parent peptide, LC–MS signal)” value (PaAP [6]; time 60 minutes) was 206401 and 213826 and 168991 and the “P0 (parent peptide, LC–MS signal)” value (PaAP [6]; time 90 minutes) was 48119.3 and 55308.2 and 38290.8. The “P0 (parent peptide, LC–MS signal)” value (PaAP [6]; time 120 minutes) was 7764.71 and 8223.82 and 5808.71, the “P0 (parent peptide, LC–MS signal)” value (PaAP [6]; time 180 minutes) was 323.386 and 411.426 and 320.297 and the “relative rate of degradation by PaAP” value (PaAP [6]; time-course assay, LC–MS) was “processed at a faster rate than unmodified ERWGHDFIK”.

With HCATIPAFDG the fragment found (PaAP_T [7]) was “products from P-5, major” and the fragment found (PaAP_T [8]) was “products from P-5, major”.

With “cyclic-ERWGHDFIK cyclized by isopeptide bond” the not cleaved (PaAP [4]) was “not degraded when incubated overnight with PaAP”.
